From article PMC11234873

Target: full-length human Hsp90α (human), P07900
Assay: BLI

PRPRPRPRPRPRPRPRPRPRPRPRPRPRPRPRPRPRPRPR (modifications not checked) [PR20 dipeptide repeats] showed a Kd of 9.08 nM.

GRGRGRGRGRGRGRGRGRGRGRGRGRGRGRGRGRGRGRGR (modifications not checked) [GR20 dipeptide repeats] was tested, and the Kd was 8.97 nM.
